Reference: patent US20150252074A1, “Antagonist for (Pro)Renin Receptor for the Treatment of Hypertension and Diabetes” (priority 2012, published 2015)
Entries after “also recorded” stand apart in the source; their conditions may differ. Blank lines part the entries; values can stand above or below the molecule they belong to. Where no end group is shown, it is not given here.

Columns and labels:
[1] = system: Ang II type 1 receptor (AT1R); assay: ICV losartan blockade of the pressor response induced by prorenin or renin; format: in vivo, mice; conditions: losartan 10 ug/ul ICV at 0.3 ul/minute for 10 minutes
[2] = target: T1, (pro)renin receptor (PRR) (Mus musculus, UniProt Q9CYN9); assay: ICV infusion of PRR antagonist peptides against the prorenin-induced pressor response, telemetric BP recording; format: in vivo, C57BI/6J mice; conditions: for effect on prorenin (ICV) induced pressor response (in words): ICV administration, C57BI/6J mice; for ΔMAP (prorenin-induced pressor response in peptide-infused mice): ICV infusion, peptide 45 ng/u1, mouse prorenin 100 ng/ul, vs. prorenin, N=5/group
T1 construct: intracerebroventricular (ICV) cannula for infusion of mouse prorenin (100 ng/ul), PR10, or PR20; from tissue; host or cells: brain of conscious C57Bl/6J mice (in vivo, ICV infusion)
Description: C57BI/6J mice (N=5/group) were each implanted with a telemetric probe for BP recording and an intracerebroventricular (ICV) cannula for infusion of mouse prorenin (100 ng/ul), PR10, or PR20 (45 ng/u1) at 0.3 ul/minute for 10 minutes. Mouse prorenin infusion increased the BP (mmHg) in WT mice (ΔMAP: 31.3±1.1); however, the prorenin-induced pressor response was abolished in either PR10 (ΔMAP: 16.9±4.4 vs. prorenin) or PR20 (ΔMAP: 12.7±0.5 vs. prorenin) infused mice.

[3] = target: (pro)renin receptor (PRR) in mouse brain sections (mouse) (UniProt Q9CYN9); assay: cell-based or functional assay
[4] = target: T2, (pro)renin receptor (PRR) in mouse brain sections (mouse, UniProt Q9CYN9 18-350); assay: FITC-labelled peptide, fluorescence microscopy on mouse brain sections
T2 construct: whole, on cells; Endogenous receptor in mouse brain tissue, not a recombinant construct
Description: In order to determine which residues of the PR20 antagonist peptide are involved in binding PRR, an alanine replacement assay was performed. A series of peptides comprising a single alanine substitution at each of the 19 amino acid positions were generated. Each of the 19 alanine substituted peptides and the PR20 peptide were labeled with FITC. Using fluorescent microscopy, each peptide was examined for binding to PRR in mouse brain sections.

WT mice = assay: Pressor response to ICV infusion of mouse prorenin or mouse renin in wildtype (WT) mice, telemetric BP recording; format: in vivo; conditions: 100 ng/ul at 0.3 ul/minute for 10 minutes ICV, N=5/group
Description: (§1) FIG. 6 is a series of graphs illustrating the pressor response to intracerebroventricular (ICV) infusion of carbachol (FIG. 6A), Ang II (FIG. 6B), renin (FIG. 6C), and prorenin (FIG. 6D) in wild-type (WT) and Nefh-PRR mice. WT and Nefh-PRR mice were implanted with telemetric transmitters and ICV cannula. Two weeks after recovery, mice were ICV infused (0.3μl/min) with carbachol (100 ng/μl), Ang II (100 ng/μl), Ang II (100 ng/μl)+losartan (10 μg/μl), mouse renin (100 ng/μl), mouse prorenin (100 ng/μl), or mouse prorenin (100 ng/μl)+losartan (10 μg/μl) over 10 minutes. Blood pressure (BP) was recorded in conscious freely moving mice. *P<0.05 vs. WT.
(§2) Neuron-specific PRR knockout mice (Nefh-PRR) and wildtype (WT) littermates (N=5/group) were each implanted with a telemetric probe for blood pressure (BP) recording and an intracerebroventricular (ICV) cannula for infusion of mouse prorenin (100 ng/ul), mouse renin (100 ng/ul), or an Ang II type 1 receptor (AT1R) blocker (losartan, 10 ug/ul) at 0.3 ul/minute for 10 minutes. Mouse prorenin infusion increased the BP (mmHg) in WT mice (ΔMAP: 41±5); however, the prorenin induced pressor response was abolished in Nefh-PRR mice (ΔMAP: 5±1).

Nefh-PRR mice = assay: Pressor response to ICV infusion of mouse prorenin or mouse renin in neuron-specific PRR knockout mice (Nefh-PRR); format: in vivo; conditions: 100 ng/ul at 0.3 ul/minute for 10 minutes ICV, N=5/group
Description: as §1, §2

T1 sequence (Q9CYN9 18-350): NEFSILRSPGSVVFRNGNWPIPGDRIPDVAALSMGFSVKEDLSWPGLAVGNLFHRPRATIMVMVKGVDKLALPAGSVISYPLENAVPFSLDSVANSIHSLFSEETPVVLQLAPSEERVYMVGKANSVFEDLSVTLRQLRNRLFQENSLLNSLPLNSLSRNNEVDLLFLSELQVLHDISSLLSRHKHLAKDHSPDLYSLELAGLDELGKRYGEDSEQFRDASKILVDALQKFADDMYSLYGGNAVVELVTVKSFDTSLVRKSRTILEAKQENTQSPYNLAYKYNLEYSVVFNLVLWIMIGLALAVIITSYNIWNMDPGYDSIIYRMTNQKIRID
Chain of (pro)renin receptor (PRR) in mouse brain sections (mouse) (Q9CYN9 18-350): as above
T2 sequence (Q9CYN9 18-350): as above

Molecule: CCCCc1nc(Cl)c(CO)n1Cc1ccc(-c2ccccc2-c2nn[nH]n2)cc1 [losartan]
effect on pressor response induced by prorenin or renin (in words) [1]: completely blocked

Molecule: IFDNIISQGVLKEDVF (PRR antagonist peptide (PR10))
effect on prorenin (ICV) induced pressor response (in words) [2]: abolished; also recorded: significantly reduced | ΔMAP (prorenin-induced pressor response in peptide-infused mice) ([2]; 0.3 ul/minute for 10 minutes): 16.9±4.4 mmHg

Molecule: LPTDTTTFKRIFLKRMPSI (PRR antagonist peptide (PR20))
effect on prorenin (ICV) induced pressor response (in words) [2]: abolished; also recorded: significantly reduced | ΔMAP (prorenin-induced pressor response in peptide-infused mice) ([2]; 0.3 ul/minute for 10 minutes): 12.7±0.5 mmHg

pressor response to ICV mouse prorenin in WT mice (ΔMAP) [3]: 41 mmHg | pressor response to ICV mouse prorenin in neuron-specific PRR knockout (Nefh-PRR) mice (ΔMAP) [3]: 5 mmHg
Molecule: mouse prorenin (from UniProt P06281 22-402) (ligand)

binding result [4]: binds
Molecule: LPTDTTTFKRIFLKRMPSI (also: FITC label, site not given here, also called PR20 antagonist peptide) [PR20 peptide labeled with FITC]

B1: mouse prorenin: activating ligand of PRR, infused ICV to induce a pressor response (protein)
chain: LPTRTATFERIPLKKMPSVREILEERGVDMTRLSAEWGVFTKRPSLTNLTSPVVLTNYLNTQYYGEIGIGTPPQTFKVIFDTGSANLWVPSTKCSRLYLACGIHSLYESSDSSSYMENGSDFTIHYGSGRVKGFLSQDSVTVGGITVTQTFGEVTELPLIPFMLAKFDGVLGMGFPAQAVGGVTPVFDHILSQGVLKEEVFSVYYNRGSHLLGGEVVLGGSDPQHYQGNFHYVSISKTDSWQITMKGVSVGSSTLLCEEGCAVVVDTGSSFISAPTSSLKLIMQALGAKEKRIEEYVVNCSQVPTLPDISFDLGGRAYTLSSTDYVLQYPNRRDKLCTLALHAMDIPPPTGPVWVLGATFIRKFYTEFDRHNNRIGFALAR
ΔMAP (increase of BP by mouse prorenin infusion alone) ([2]; ICV mouse prorenin 100 ng/ul, 0.3 ul/minute for 10 minutes, WT (C57BI/6J) mice): 31.3±1.1 mmHg | ΔMAP (pressor response to ICV infusion) (WT mice): 41±5 mmHg | ΔMAP (pressor response to ICV infusion) (Nefh-PRR mice): 5±1 mmHg

B2: mouse renin: mouse renin protein infused ICV to induce a pressor response (protein, UniProt P06281 72-402, looked up)
Renin-1: SPVVLTNYLNTQYYGEIGIGTPPQTFKVIFDTGSANLWVPSTKCSRLYLACGIHSLYESSDSSSYMENGSDFTIHYGSGRVKGFLSQDSVTVGGITVTQTFGEVTELPLIPFMLAKFDGVLGMGFPAQAVGGVTPVFDHILSQGVLKEEVFSVYYNRGSHLLGGEVVLGGSDPQHYQGNFHYVSISKTDSWQITMKGVSVGSSTLLCEEGCAVVVDTGSSFISAPTSSLKLIMQALGAKEKRIEEYVVNCSQVPTLPDISFDLGGRAYTLSSTDYVLQYPNRRDKLCTLALHAMDIPPPTGPVWVLGATFIRKFYTEFDRHNNRIGFALAR
ΔMAP (pressor response to ICV infusion) (WT mice): 31±5 mmHg | ΔMAP (pressor response to ICV infusion) (Nefh-PRR mice): 27±2 mmHg
